Publication doi:10.1101/2022.08.28.505448 (bioRxiv, 2022)

T1: GB1-MITF_(81-204) Δ123-127 (UniProt O75030-9 81-204, Δ123-127)
T1 sequence (looked up): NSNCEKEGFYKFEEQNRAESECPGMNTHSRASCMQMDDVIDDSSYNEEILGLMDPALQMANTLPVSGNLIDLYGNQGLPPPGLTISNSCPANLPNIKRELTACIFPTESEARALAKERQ

T2: MITF_(81-204) (UniProt O75030-9 81-204)
T2 sequence (looked up): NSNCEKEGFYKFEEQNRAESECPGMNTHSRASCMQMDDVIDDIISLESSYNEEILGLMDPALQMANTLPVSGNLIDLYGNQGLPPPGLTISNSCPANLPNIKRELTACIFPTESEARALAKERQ

T3: GB1-TAZ2 (human, UniProt Q09472 1723-1812, C1738A | C1746A | C1789A | C1790A)
T3 sequence (looked up): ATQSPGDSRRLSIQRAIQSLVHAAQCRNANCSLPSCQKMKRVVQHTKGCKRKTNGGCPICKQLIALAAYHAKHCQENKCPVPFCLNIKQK


target: T1, GB1-MITF_(81-204) Δ123-127; experiment: pull-down

Binder | binding result
TAZ2 (residues 1723-1812 of p300 with four stabilizing mutations) (domain or fragment, human, UniProt Q09472 1723-1812, looked up) ATQSPGDSRRLSIQRAIQSLVHAAQCRNANCSLPSCQKMKRVVQHTKGCKRKTNGGCPICKQLIALAAYHAKHCQENKCPVPFCLNIKQK | binds

target: T2, MITF_(81-204); experiment: ITC

Binder | Kd [µM]
TAZ2 (residues 1723-1812 of p300 with four stabilizing mutations) (domain or fragment, human, UniProt Q09472 1723-1812, looked up) ATQSPGDSRRLSIQRAIQSLVHAAQCRNANCSLPSCQKMKRVVQHTKGCKRKTNGGCPICKQLIALAAYHAKHCQENKCPVPFCLNIKQK | 1.24 ± 0.23
TAZ1 (residues 346-440 of CBP) (domain or fragment) not shown | 6.7 ± 0.5

target: T3, GB1-TAZ2; experiment: peptide or protein array

Binder | binding result
ADVIDDIISLESSYNEEIL (peptide, UniProt O75030-9 117-135, looked up) [MITF_(117-135) peptide, Asp117 mutated to alanine] | binds
DAVIDDIISLESSYNEEIL (peptide, UniProt O75030-9 117-135, looked up) [MITF_(117-135) peptide, Asp118 mutated to alanine] | binds
DDAIDDIISLESSYNEEIL (peptide, UniProt O75030-9 117-135, looked up) [MITF_(117-135) peptide, Val119 mutated to alanine] | binds
DDVADDIISLESSYNEEIL (peptide, UniProt O75030-9 117-135, looked up) [MITF_(117-135) peptide, Ile120 mutated to alanine] | binds
DDVIADIISLESSYNEEIL (peptide, UniProt O75030-9 117-135, looked up) [MITF_(117-135) peptide, Asp121 mutated to alanine] | binds
DDVIDAIISLESSYNEEIL (peptide, UniProt O75030-9 117-135, looked up) [MITF_(117-135) peptide, Asp122 mutated to alanine] | binds
DDVIDDAISLESSYNEEIL (peptide, UniProt O75030-9 117-135, looked up) [MITF_(117-135) peptide, Ile123 mutated to alanine] | binds
DDVIDDIASLESSYNEEIL (peptide, UniProt O75030-9 117-135, looked up) [MITF_(117-135) peptide, Ile124 mutated to alanine] | binds
DDVIDDIIALESSYNEEIL (peptide, UniProt O75030-9 117-135, looked up) [MITF_(117-135) peptide, Ser125 mutated to alanine] | binds
DDVIDDIISAESSYNEEIL (peptide, UniProt O75030-9 117-135, looked up) [MITF_(117-135) peptide, Leu126 mutated to alanine] | binds
DDVIDDIISLASSYNEEIL (peptide, UniProt O75030-9 117-135, looked up) [MITF_(117-135) peptide, Glu127 mutated to alanine] | binds
